US20110070610

Tests used:
[1] = target: T1, pACSH248 fusion protein (S661 peptide with N-terminal SEQ ID NO:19 tag and TEV cleavage site linker)
T1 chain: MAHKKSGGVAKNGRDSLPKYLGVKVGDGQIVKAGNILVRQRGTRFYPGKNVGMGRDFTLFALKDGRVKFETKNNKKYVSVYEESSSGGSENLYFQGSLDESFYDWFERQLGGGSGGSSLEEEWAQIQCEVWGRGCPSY

[2] = target: T2, pACSH360 fusion protein (S661 peptide with N-terminal SEQ ID NO:19 tag and HAV18 3C cleavage site linker)
T2 chain: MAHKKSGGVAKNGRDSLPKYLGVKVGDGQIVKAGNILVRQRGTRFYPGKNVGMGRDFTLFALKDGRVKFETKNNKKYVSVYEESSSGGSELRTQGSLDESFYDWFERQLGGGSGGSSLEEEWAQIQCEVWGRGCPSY

B1: pACSH307 protease (SEQ ID NO:10 tagged TEV protease) (protein)
chain: MKVILLRDVPKIGKKGEIKEVSDGYARNYLIPRGFAKEYTEGLERAIKHEKEIEKRKKEREREESEKILKELKKRTHVVKVKAGEGGKIFGAVTAATVAEEISKTTGLKLDKRWFKLDKPIKELGEYSLEVSLPGGVKDTIKIRVEREESSSGSSGSSGSSGESLFKGPRDYNPISSTICHLTNESDGHTTSLYGIGFGPFIITNKHLFRRNNGTLLVQSLHGVFKVKNTTTLQQHLIDGRDMIIIRMPKDFPPFPQKLKFREPQREERICLVTTNFQTKSMSSMVSDTSCTFPSSDGIFWKHWIQTKDGQCGSPLVSTRDGFIVGIHSASNFTNTNNYFTSVPKNFMELLTNQEAQQWVSGWRLNADSVLWGGHKVFMVKPEEPFQPVKEATQLMN
- cleavage of fusion protein, LC-MS, 8 hours, enzyme to substrate ratio 1:1 [1]: after incubation for 8 hours with an enzyme to substrate ration of 1:1, the major part of the S661 peptide was released from the pACSH248 fusion protein

B2: pACSH362 protease (SEQ ID NO:10 tagged HAV18 3C protease) (protein)
chain: MKVILLRDVPKIGKKGEIKEVSDGYARNYLIPRGFAKEYTEGLERAIKHEKEIEKRKKEREREESEKILKELKKRTHVVKVKAGEGGKIFGAVTAATVAEEISKTTGLKLDKRWFKLDKPIKELGEYSLEVSLPGGVKDTIKIRVEREESSSGSGSGSGSTLEIAGLVRKNLVQFGVGEKNGCVRWVMNALGVKDDWLLVPSHAYKFEKDYEMMEFYFNRGGTYYSISAGNVVIQSLDVGFQDVVLMKVPTIPKFRDITEHFIKKGDVPRALNRLATLVTTVNGTPMLISEGPLKMEEKATYVHKKNDGTTVDLTVDQAWRGKGEGLPGMCGGALVSSNQSIQNAILGIHVAGGNSILVAKLVTQEMFQNIDKKIESQ
- cleavage of fusion protein, LC-MS, 7 hours at 37° C., enzyme to substrate ratio 1:10 or 1:50 [2]: A fragment representing the released S661 peptide was observed for both ratios
